Measurements published in IntAct's records for PubMed 31515488.

B1: Caspase recruitment domain-containing protein 9 (Homo sapiens), Q9H257 (parent)
chain: MSDYENDDECWSVLEGFRVTLTSVIDPSRITPYLRQCKVLNPDDEEQVLSDPNLVIRKRKVGVLLDILQRTGHKGYVAFLESLELYYPQLYKKVTGKEPARVFSMIIDASGESGLTQLLMTEVMKLQKKVQDLTALLSSKDDFIKELRVKDSLLRKHQERVQRLKEECEAGSRELKRCKEENYDLAMRLAHQSEEKGAALMRNRDLQLEIDQLKHSLMKAEDDCKVERKHTLKLRHAMEQRPSQELLWELQQEKALLQARVQELEASVQEGKLDRSSPYIQVLEEDWRQALRDHQEQANTIFSLRKDLRQGEARRLRCMEEKEMFELQCLALRKDSKMYKDRIEAILLQMEEVAIERDQAIATREELHAQHARGLQEKDALRKQVRELGEKADELQLQVFQCEAQLLAVEGRLRRQQLETLVLSSDLEDGSPRRSQELSLPQDLEDTQLSDKGCLAGGGSPKQPFAALHQEQVLRNPHDAGLSSGEPPEKERRRLKESFENYRRKRALRKMQKGWRQGEEDRENTTGSDNTDTEGS
B2: Isoform 1 of Myotubularin-related protein 9 (Homo sapiens), Q96QG7-1 (parent)
chain: MEFAELIKTPRVDNVVLHRPFYPAVEGTLCLTGHHLILSSRQDNTEELWLLHSNIDAIDKRFVGSLGTIIIKCKDFRIIQLDIPGMEECLNIASSIEALSTLDSITLMYPFFYRPMFEVIEDGWHSFLPEQEFELYSSATSEWRLSYVNKEFAVCPSYPPIVTVPKSIDDEALRKVATFRHGGRFPVLSYYHKKNGMVIMRSGQPLTGTNGRRCKEDEKLINATLRAGKRGYIIDTRSLNVAQQTRAKGGGFEQEAHYPQWRRIHKSIERYHILQESLIKLVEACNDQTHNMDRWLSKLEASNWLTHIKEILTTACLAAQCIDREGASILIHGTEGTDSTLQVTSLAQIILEPRSRTIRGFEALIEREWLQAGHPFQQRCAQSAYCNTKQKWEAPVFLLFLDCVWQILRQFPCSFEFNENFLIMLFEHAYASQFGTFLGNNESERCKLKLQQKTMSLWSWVNQPSELSKFTNPLFEANNLVIWPSVAPQSLPLWEGIFLRWNRSSKYLDEAYEEMVNIIEYNKELQAKVNILRRQLAELETEDGMQESP
partner: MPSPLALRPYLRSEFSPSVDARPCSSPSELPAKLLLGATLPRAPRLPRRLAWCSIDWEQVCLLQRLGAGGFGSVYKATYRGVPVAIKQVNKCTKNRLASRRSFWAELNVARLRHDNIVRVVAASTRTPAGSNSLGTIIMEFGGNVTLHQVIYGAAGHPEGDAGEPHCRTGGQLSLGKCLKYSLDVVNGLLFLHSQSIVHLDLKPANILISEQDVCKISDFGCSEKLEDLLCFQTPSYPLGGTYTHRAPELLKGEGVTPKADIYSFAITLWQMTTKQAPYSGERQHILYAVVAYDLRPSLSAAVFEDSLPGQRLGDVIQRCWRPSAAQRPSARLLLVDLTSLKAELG
B3: Ligand of Numb protein X 2 (Homo sapiens), Q8N448 (parent)
chain: MGTTSDEMVSVEQTSSSSLNPLCFECGQQHWTRENHLYNYQNEVDDDLVCHICLQPLLQPLDTPCGHTFCYKCLRNFLQEKDFCPLDRKRLHFKLCKKSSILVHKLLDKLLVLCPFSSVCKDVMQRCDLEAHLKNRCPGASHRRVALERRKTSRTQAEIENENGPTLLDPAGTLSPEADCLGTGAVPVERHLTSASLSTWSEEPGLDNPAFEESAGADTTQQPLSLPEGEITTIEIHRSNPYIQLGISIVGGNETPLINIVIQEVYRDGVIARDGRLLAGDQILQVNNYNISNVSHNYARAVLSQPCNTLHLTVLRERRFGNRAHNHSDSNSPREEIFQVALHKRDSGEQLGIKLVRRTDEPGVFILDLLEGGLAAQDGRLSSNDRVLAINGHDLKYGTPELAAQIIQASGERVNLTIARPGKPQPGNTIREAGNHSSSSQHHTPPPYYSRPSSHKDLTQCVTCQEKHITVKKEPHESLGMTVAGGRGSKSGELPIFVTSVPPHGCLARDGRIKRGDVLLNINGIDLTNLSHSEAVAMLKASAASPAVALKALEVQIVEEATQNAEEQPSTFSENEYDASWSPSWVMWLGLPSTLHSCHDIVLRRSYLGSWGFSIVGGYEENHTNQPFFIKTIVLGTPAYYDGRLKCGDMIVAVNGLSTVGMSHSALVPMLKEQRNKVTLTVICWPGSLV
partner: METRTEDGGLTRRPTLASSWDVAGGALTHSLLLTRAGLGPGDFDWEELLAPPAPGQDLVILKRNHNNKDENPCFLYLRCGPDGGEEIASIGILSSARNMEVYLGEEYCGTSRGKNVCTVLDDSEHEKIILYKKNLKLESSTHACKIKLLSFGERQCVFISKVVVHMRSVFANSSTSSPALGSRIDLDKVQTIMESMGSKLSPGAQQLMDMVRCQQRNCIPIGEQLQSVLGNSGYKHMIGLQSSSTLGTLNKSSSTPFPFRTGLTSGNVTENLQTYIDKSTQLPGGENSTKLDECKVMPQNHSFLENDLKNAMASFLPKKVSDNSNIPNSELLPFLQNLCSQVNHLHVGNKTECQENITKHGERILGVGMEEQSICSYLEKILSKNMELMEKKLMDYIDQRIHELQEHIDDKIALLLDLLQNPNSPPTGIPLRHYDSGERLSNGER
B4: Protein FAM9B (Homo sapiens), Q8IZU0 (parent)
chain: MAAWGKKHAGKDPVRDECEERNRFTETREEDVTDEHGEREPFAETDEHTGANTKKPEDTAEDLTAKRKRMKMDKTCSKTKNKSKHALRKKQLKRQKRDYIHSLKLLNVLEEYITDEQKEEEEEEGEEEELIRIFQEQQKKWQQYRSVRRERLKEMKLLRDQFVKALEDFEDLCDRVFSDEDSELDN
partner: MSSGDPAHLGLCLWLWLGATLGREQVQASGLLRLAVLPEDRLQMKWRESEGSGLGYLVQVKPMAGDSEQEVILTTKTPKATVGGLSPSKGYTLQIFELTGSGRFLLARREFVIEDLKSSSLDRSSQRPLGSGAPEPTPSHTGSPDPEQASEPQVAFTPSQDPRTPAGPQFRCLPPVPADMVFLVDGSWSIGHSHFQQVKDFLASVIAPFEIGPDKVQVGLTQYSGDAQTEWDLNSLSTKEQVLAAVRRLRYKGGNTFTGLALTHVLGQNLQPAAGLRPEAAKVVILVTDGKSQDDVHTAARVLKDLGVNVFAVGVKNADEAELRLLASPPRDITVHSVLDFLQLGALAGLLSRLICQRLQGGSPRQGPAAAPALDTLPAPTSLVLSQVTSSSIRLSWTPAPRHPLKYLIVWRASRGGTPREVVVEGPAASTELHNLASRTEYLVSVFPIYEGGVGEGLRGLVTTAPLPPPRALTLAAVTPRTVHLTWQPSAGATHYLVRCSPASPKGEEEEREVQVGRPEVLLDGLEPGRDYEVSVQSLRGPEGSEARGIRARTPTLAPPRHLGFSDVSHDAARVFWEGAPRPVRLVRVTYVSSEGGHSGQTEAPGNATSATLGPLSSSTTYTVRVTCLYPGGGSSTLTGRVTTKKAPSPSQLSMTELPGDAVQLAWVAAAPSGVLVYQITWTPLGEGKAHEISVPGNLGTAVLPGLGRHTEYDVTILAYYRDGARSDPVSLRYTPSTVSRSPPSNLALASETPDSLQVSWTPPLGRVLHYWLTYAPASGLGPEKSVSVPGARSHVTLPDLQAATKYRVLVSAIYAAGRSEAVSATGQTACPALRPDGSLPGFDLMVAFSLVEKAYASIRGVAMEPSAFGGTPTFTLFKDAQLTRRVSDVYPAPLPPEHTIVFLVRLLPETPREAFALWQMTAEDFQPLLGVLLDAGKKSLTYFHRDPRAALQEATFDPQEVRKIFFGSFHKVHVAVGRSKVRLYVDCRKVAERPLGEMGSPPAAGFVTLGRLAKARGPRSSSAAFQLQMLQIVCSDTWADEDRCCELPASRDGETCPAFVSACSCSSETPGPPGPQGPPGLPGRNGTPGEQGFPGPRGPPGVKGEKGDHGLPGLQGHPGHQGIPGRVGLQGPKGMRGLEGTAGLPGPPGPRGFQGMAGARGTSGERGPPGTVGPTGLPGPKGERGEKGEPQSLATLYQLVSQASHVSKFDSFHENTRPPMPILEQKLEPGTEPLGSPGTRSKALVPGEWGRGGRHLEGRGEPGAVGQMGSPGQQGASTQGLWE
B5: Proline-rich protein 14 (Homo sapiens), Q9BWN1 (parent)
chain: MDLPGDSSPPGQPRLCRQPLTRALWGARSPKRPRLQLPGAPSPLEKASRRVLAVVLEDVMAVHMVPVVPSKQTSIPQHHSYHQDPVHRQPPASPPRQAGWSSQARPPDPLCLCREPLSRIHRTSSTLRRRSRTTPGPEEGPSQKVDRAPQPTLVVMLEDIASPRPPAEGFIDETPNFIIPAQRAEPMRIVRQPTPPPGDLEPPFQPSALPADPLESPPTAPDPALELPSTPPPSSLLRPRLSPWGLAPLFRSVRSKLESFADIFLTPNKTPQPPPPSPPMKLELKIAISEAEQSGAAEGTASVSPRPPIRQWRTQDHNTPALLPKPSLGRSYSCPDLGPPGPGTCTWPPAPPQPSRPRPRRHTVGGGEMARAPPPPRPCLRKEVFPLGGVGASPSLTTSCSSTASTSFSEPAEPRLGSTKGKEPRASKDQVLSEPETKTMGKVSRFRIRRTPARPQLNLTPMGLPRPIRLNKKEFSLEEIYTNKNYQSPTTRRTFETIFEEPRERNGTLIFTSSRKLRRAVEFRDSSLPRSRRPSRGVRAAGGRTVPPNVAPSPDVGPLLQQRLEELDALLLEEETVDREQPHWT
B6: Cilium assembly protein DZIP1L (Homo sapiens), Q8IYY4 (parent)
chain: MQSPAATAEGLSGPLFGAYTFPTFKFQPRHDSMDWRRISTLDVDRVARELDVATLQENIAGITFCNLDREVCSRCGQPVDPALLKVLRLAQLIIEYLLHCQDCLSASVAQLEARLQTSLGQQQRGQQELGRQADELKGVREESRRRRKMISTLQQLLMQTGTHSYHTCHLCDKTFMNATFLRGHIQRRHAGVAEGGKQKKQEQPVEEVLEELRAKLKWTQGELEAQREAERQRQLQEAELIHQREIEAKKEFDKWKEQEWTKLYGEIDKLKKLFWDEFKNVAKQNSTLEEKLRALQSHSVMESKLGSLRDEESEEWLRQARELQALREKTEIQKTEWKRKVKELHEEHMAEKKELQEENQRLQASLSQDQKKAAAQSQCQISTLRAQLQEQARIIASQEEMIQSLSLRKVEGIHKVPKAVDTEEDSPEEEMEDSQDEQHKVLAALRRNPTLLKHFRPILEDTLEEKLESMGIRKDAKGISIQTLRHLESLLRVQREQKARKFSEFLSLRGKLVKEVTSRAKERQENGAVVSQPDGQPSVKSQQSTLVTREAQPKTRTLQVALPSTPAEPPPPTRQSHGSHGSSLTQVSAPAPRPGLHGPSSTPPSSGPGMSTPPFSSEEDSEGDRVQRVSLQPPKVPSRMVPRPKDDWDWSDTETSEENAQPPGQGSGTLVQSMVKNLEKQLEAPAKKPAGGVSLFFMPNAGPQRAATPGRKPQLSEDESDLEISSLEDLPLDLDQREKPKPLSRSKLPEKFGTGPQSSGQPRVPAW

Variants of: B1
Settings: with tri23_human TRIM23, P36406
Sequence of tri23_human TRIM23, P36406 (P36406 whole entry): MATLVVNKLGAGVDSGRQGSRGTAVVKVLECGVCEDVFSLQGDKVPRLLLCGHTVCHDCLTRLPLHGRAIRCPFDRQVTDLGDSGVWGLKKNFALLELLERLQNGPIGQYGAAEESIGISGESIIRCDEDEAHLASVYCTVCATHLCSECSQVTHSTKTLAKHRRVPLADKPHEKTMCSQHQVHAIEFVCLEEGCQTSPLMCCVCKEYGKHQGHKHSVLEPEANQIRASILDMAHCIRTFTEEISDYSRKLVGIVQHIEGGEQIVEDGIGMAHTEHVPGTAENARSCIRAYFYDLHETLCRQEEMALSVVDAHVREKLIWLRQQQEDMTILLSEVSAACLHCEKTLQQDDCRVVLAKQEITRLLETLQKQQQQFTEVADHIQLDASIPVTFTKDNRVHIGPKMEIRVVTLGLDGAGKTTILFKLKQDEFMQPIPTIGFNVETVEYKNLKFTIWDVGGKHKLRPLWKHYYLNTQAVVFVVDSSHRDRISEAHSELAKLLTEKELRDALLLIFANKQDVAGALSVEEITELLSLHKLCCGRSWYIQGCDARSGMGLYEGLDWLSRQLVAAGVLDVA

Row | Variant | effect of a mutation on the interaction
1 | R173H | with no effect

Variants of: B1
Settings: with KRT19, P08727
Sequence of KRT19, P08727 (P08727 whole entry): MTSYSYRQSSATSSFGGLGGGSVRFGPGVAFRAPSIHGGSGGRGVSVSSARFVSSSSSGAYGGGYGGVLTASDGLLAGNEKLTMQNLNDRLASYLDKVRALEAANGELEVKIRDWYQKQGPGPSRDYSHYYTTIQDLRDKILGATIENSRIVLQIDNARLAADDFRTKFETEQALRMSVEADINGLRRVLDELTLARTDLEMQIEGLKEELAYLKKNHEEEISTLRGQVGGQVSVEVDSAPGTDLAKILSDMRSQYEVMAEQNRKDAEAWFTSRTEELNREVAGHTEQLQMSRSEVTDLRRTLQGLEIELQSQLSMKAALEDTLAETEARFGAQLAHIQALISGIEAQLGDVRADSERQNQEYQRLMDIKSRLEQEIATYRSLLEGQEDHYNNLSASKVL

Row | Variant | effect of a mutation on the interaction
2 | R173H | with no effect

Variants of: B1
Settings: with pak5_human PAK5, Q9P286
Sequence of pak5_human PAK5, Q9P286 (Q9P286 whole entry, looked up): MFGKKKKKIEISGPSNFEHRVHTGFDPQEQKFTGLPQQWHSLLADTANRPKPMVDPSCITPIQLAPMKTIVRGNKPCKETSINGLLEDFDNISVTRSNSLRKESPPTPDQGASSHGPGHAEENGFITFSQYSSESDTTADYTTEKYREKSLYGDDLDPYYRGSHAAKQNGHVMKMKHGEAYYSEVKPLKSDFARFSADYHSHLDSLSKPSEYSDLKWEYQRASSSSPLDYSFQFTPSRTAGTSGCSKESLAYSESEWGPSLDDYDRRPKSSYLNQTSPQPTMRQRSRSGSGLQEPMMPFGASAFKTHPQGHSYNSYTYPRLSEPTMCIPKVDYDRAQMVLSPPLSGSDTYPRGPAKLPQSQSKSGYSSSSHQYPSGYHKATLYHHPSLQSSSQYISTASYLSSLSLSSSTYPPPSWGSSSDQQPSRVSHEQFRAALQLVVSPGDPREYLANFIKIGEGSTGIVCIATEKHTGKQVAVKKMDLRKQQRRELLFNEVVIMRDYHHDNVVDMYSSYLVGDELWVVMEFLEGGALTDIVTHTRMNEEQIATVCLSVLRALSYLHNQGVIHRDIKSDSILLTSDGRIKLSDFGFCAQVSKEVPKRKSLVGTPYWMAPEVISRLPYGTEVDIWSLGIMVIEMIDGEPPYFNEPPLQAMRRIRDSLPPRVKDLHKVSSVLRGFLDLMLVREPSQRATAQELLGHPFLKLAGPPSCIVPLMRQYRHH

Row | Variant | effect of a mutation on the interaction
3 | V385L | with no effect

Variants of: B1
Settings: with zn572_human ZNF572, Q7Z3I7
Sequence of zn572_human ZNF572, Q7Z3I7 (Q7Z3I7 whole entry): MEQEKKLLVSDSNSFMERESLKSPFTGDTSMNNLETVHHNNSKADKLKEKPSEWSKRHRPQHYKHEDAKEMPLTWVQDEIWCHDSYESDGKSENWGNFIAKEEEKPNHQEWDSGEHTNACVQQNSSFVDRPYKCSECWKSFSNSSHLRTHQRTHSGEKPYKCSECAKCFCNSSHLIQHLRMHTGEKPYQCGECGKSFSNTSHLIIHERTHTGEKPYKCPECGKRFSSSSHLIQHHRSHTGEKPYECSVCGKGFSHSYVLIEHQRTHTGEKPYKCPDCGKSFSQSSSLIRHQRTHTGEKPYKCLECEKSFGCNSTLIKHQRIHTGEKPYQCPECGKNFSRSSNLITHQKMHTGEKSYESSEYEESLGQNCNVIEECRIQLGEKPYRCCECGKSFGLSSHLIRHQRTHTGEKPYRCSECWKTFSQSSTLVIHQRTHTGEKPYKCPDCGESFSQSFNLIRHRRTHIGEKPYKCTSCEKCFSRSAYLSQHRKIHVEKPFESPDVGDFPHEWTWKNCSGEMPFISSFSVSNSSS

Row | Variant | effect of a mutation on the interaction
4 | V385L | disrupting interaction strength

Variants of: B2
Settings: with mos_human MOS

Row | Variant | effect of a mutation on the interaction
5 | F127I | with no effect

Variants of: B2
Settings: with mos_human MOS
Remark: another data set of the same source

Row | Variant | effect of a mutation on the interaction
6 | S126C | with no effect

Variants of: B3
Settings: with paat_human PAAT

Row | Variant | effect of a mutation on the interaction
7 | T183I | with no effect
8 | V145I | with no effect

Variants of: B4
Settings: with coka1_human COL20A1, Q9P218

Row | Variant | effect of a mutation on the interaction
9 | R23H | with no effect

Variants of: B5
Settings: with cbx5_human CBX5, P45973
Sequence of cbx5_human CBX5, P45973 (P45973 whole entry): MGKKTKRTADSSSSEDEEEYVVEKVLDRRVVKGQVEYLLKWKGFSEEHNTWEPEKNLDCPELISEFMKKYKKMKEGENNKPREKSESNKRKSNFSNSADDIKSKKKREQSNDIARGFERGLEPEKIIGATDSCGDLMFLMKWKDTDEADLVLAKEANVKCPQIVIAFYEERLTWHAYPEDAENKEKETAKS

Row | Variant | effect of a mutation on the interaction
10 | R114L | with no effect
11 | P359L | with no effect

Variants of: B6
Settings: with cep76_human CEP76, Q8TAP6
Sequence of cep76_human CEP76, Q8TAP6 (Q8TAP6 whole entry): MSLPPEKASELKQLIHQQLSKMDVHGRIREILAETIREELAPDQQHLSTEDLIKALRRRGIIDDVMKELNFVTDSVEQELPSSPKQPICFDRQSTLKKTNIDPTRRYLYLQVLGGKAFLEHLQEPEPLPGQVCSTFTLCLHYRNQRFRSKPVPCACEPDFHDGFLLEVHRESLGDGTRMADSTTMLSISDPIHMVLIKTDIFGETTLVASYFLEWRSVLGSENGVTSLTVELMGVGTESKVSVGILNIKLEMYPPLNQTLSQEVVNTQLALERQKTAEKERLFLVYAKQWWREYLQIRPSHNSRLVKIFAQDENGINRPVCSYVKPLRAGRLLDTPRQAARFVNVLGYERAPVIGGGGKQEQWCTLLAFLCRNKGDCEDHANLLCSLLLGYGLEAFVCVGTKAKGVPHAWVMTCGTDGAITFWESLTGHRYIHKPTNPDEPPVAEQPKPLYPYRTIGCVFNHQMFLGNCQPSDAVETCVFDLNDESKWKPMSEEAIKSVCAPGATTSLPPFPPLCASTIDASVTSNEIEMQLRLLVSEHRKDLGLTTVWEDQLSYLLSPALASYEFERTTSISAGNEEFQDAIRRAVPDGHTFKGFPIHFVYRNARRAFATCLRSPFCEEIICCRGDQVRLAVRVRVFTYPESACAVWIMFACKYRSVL

Row | Variant | effect of a mutation on the interaction
12 | R625H | with no effect
13 | R88C | with no effect
14 | G595E | with no effect
